molecular target: EPHB2 (UniProt P29323); assay: phosphorylation enrichment, bacterial display (enrichment ratio); higher = better substrate or ligand; peptides without Tyr show the background
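Further: 11-residue human phosphosite peptides and single-mutation variants displayed on the E. coli surface, counted by deep sequencing, each peptide's frequency after selection divided by its frequency in the unselected input library; frequency after pTyr selection over input frequency; kinase dosed for 20-30% of maximal phosphorylation in three min.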

Chain of EPHB2 (P29323 whole entry, looked up): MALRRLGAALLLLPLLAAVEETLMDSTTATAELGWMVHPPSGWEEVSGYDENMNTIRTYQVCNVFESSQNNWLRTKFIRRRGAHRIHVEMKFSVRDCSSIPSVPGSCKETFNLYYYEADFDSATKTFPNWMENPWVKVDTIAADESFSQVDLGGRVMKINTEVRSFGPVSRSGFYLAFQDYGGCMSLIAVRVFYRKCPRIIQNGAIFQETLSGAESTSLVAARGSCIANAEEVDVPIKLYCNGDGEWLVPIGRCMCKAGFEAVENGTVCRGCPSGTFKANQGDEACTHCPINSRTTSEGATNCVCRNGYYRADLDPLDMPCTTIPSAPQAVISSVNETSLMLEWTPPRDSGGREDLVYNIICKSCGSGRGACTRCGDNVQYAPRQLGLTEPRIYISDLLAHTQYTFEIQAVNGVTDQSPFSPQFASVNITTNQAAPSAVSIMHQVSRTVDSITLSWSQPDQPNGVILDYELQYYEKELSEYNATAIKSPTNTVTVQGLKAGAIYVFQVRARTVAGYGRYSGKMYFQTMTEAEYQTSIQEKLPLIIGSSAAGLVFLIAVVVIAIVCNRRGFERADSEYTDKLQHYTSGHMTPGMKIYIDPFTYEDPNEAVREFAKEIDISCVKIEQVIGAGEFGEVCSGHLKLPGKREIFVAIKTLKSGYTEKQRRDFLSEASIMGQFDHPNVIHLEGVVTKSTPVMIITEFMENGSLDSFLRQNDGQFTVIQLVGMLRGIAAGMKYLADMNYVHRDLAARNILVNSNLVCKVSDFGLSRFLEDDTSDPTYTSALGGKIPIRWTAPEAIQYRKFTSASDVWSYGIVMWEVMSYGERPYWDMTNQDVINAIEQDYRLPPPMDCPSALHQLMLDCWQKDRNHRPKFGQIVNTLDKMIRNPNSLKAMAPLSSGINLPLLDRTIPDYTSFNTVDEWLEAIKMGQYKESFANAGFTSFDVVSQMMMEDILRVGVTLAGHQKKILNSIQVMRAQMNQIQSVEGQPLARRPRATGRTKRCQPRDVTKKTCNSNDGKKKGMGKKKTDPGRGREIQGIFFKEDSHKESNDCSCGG

Compared with VEDHDYEGGIG [TKT_Y564_Y563D], RGKDSYETSKL [SPP1_Y225_Q229K] is lower in phosphorylation enrichment: 0.785 for the first, 0.678 for the second.

Going from ARSHIYTFSSC [MEFV_Y741_A744S] to QLPRGYISIPV [BAG3_Y205], the phosphorylation enrichment rises from 0.665 to 0.722.

Compared with NKVFTYIFIME [SCN4A_Y1074_D1069N], YMKEPYIQSRF [HIPK4_Y175_V171M] is lower in phosphorylation enrichment: 0.613 for the first, 0.392 for the second.

First: KDHPDYKFQAR [SOX10_Y171_P175A_YF]
Second: CEHRGSLFLAI [TEK_Y897_Y897S_YF]
The phosphorylation enrichment of the first is lower: 0.408 for the first, 0.564 for the second.

Going from GRPLFYWLTGC [LYZL6_Y140] to MSRNLYSGDCF [DDR2_Y736_Y740C_YF], the phosphorylation enrichment rises from 0.491 to 1.97.

Compared with RGLQVYHRRNA [LRP2_Y2010], EEVPLYESATT [DCC_Y809_G805E] is higher in phosphorylation enrichment: 0.86 for the first, 2.66 for the second.

First: ACCLLYCGDVV [TUBA4A_Y319_R320C]
Second: KVMANYVYKAG [MAML2_Y513_M514V]
The phosphorylation enrichment of the first is higher: 7.84 for the first, 0.37 for the second.

First: VLTSKYRGGGG [HBA1_Y141]
Second: TVHCDYLNIPH [TAF1L_Y1385]
The phosphorylation enrichment of the first is lower: 0.278 for the first, 0.706 for the second.

Going from CSEEMYRLMLQ [RET_Y981] to PSQRRNVYYYS [PTEN_Y174_Y174N], the phosphorylation enrichment falls from 0.664 to 0.657.

Going from EQKKFYNAMKK [SCN5A_Y1495_YF] to FDGGCYEQLFV [MC4R_Y41_S36Y_YF], the phosphorylation enrichment rises from 0.317 to 1.07.

First: QFQEKYKQVEQ [HCN4_Y531_YF]
Second: APAHKYHGGGG [HBD_Y146_L142P]
The phosphorylation enrichment of the first is higher: 0.95 for the first, 0.419 for the second.

Going from GRRNTYFASIA [ACADM_Y352_YF] to TVFSDYLHPQY [CCPG1_Y569], the phosphorylation enrichment rises from 0.423 to 0.505.

First: KKCTRYIDCDR [ASPA_Y64_L69R]
Second: TILEHYRRTHC [MYBPC3_Y1119_V1115I]
The phosphorylation enrichment of the first is lower: 0.445 for the first, 0.575 for the second.

Compared with LSVEIYDRREF [ITGB7_Y753_YF], DEGVNYFMSKG [FBXO8_Y156] is higher in phosphorylation enrichment: 0.483 for the first, 0.685 for the second.

For LLSISYVGCSL [ADGRD1_Y571_S567L], the phosphorylation enrichment was 0.823.

test system: AncSZ; assay: as above

First: VEDHDYEGGIG [TKT_Y564_Y563D]
Second: RGKDSYETSKL [SPP1_Y225_Q229K]
The phosphorylation enrichment of the first is higher: 1.49 for the first, 1.26 for the second.

Compared with ARSHIYTFSSC [MEFV_Y741_A744S], QLPRGYISIPV [BAG3_Y205] is lower in phosphorylation enrichment: 0.867 for the first, 0.789 for the second.

First: NKVFTYIFIME [SCN4A_Y1074_D1069N]
Second: YMKEPYIQSRF [HIPK4_Y175_V171M]
The phosphorylation enrichment of the first is higher: 1.28 for the first, 0.622 for the second.

First: KDHPDYKFQAR [SOX10_Y171_P175A_YF]
Second: CEHRGSLFLAI [TEK_Y897_Y897S_YF]
The phosphorylation enrichment of the first is lower: 0.757 for the first, 1.03 for the second.

First: GRPLFYWLTGC [LYZL6_Y140]
Second: MSRNLYSGDCF [DDR2_Y736_Y740C_YF]
The phosphorylation enrichment of the first is lower: 0.968 for the first, 1.01 for the second.

Compared with RGLQVYHRRNA [LRP2_Y2010], EEVPLYESATT [DCC_Y809_G805E] is higher in phosphorylation enrichment: 1.41 for the first, 1.5 for the second.

Compared with ACCLLYCGDVV [TUBA4A_Y319_R320C], KVMANYVYKAG [MAML2_Y513_M514V] is lower in phosphorylation enrichment: 1.54 for the first, 0.465 for the second.

Compared with VLTSKYRGGGG [HBA1_Y141], TVHCDYLNIPH [TAF1L_Y1385] is higher in phosphorylation enrichment: 0.386 for the first, 0.959 for the second.

First: CSEEMYRLMLQ [RET_Y981]
Second: PSQRRNVYYYS [PTEN_Y174_Y174N]
The phosphorylation enrichment of the first is higher: 1.4 for the first, 0.567 for the second.

Compared with EQKKFYNAMKK [SCN5A_Y1495_YF], FDGGCYEQLFV [MC4R_Y41_S36Y_YF] is higher in phosphorylation enrichment: 0.484 for the first, 2.53 for the second.

First: QFQEKYKQVEQ [HCN4_Y531_YF]
Second: APAHKYHGGGG [HBD_Y146_L142P]
The phosphorylation enrichment of the first is higher: 1.27 for the first, 0.778 for the second.

Compared with GRRNTYFASIA [ACADM_Y352_YF], TVFSDYLHPQY [CCPG1_Y569] is higher in phosphorylation enrichment: 0.722 for the first, 2.34 for the second.

First: KKCTRYIDCDR [ASPA_Y64_L69R]
Second: TILEHYRRTHC [MYBPC3_Y1119_V1115I]
The phosphorylation enrichment of the first is higher: 0.832 for the first, 0.809 for the second.

First: LSVEIYDRREF [ITGB7_Y753_YF]
Second: DEGVNYFMSKG [FBXO8_Y156]
The phosphorylation enrichment of the first is higher: 1.26 for the first, 1.1 for the second.

For LLSISYVGCSL [ADGRD1_Y571_S567L], the phosphorylation enrichment was 1.48.

Reference: the supplement of paper PMC10065799, “High-throughput profiling of sequence recognition by tyrosine kinases and SH2 domains using bacterial peptide display” (eLife, 2023)
